Earlier results as cited in publication PMC4072394.

Tests used:
Asp299 = experiment: UV-vis; conditions: detergent-solubilised, unphotolysed (ground) state with protonated Schiff base
Glu169 = experiment: UV-vis; conditions: detergent-solubilised, unphotolysed (ground) state with protonated Schiff base

For “Channelrhodopsin-1 (CaChR1) (Chlamydomonas augustae)”, the pKa (Asp299) is given as “near 5” and the pKa (Glu169) is given as “near 9”.
